How the values were obtained:
[1] = biological target: T1, human BVR (Homo sapiens, UniProt P53004); assay: BVR autophosphorylation; format: biochemical; details: 20 mM Zn acetate, pH 8.4; also with Mn^+2
T1 construct: made in house; host or cells: E. coli (pGEX 4T-2/hBVR)
T1 sequence (P53004 1-296 A154S/G155D/E160D): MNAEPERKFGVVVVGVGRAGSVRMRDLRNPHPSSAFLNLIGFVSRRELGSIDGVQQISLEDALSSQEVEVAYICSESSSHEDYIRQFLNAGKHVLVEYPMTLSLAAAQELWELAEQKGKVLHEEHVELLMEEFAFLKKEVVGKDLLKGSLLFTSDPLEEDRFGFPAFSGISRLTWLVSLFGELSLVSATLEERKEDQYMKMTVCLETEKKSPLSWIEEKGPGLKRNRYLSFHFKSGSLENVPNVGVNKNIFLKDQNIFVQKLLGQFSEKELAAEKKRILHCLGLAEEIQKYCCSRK
Procedure: In FIG. 9A, effect of tyrosine mutations of BVR on its autophosphorylation is shown. Human wtBVR and BVR with mutations in tyrosine were used in the experiment to determine autophosphorylation of BVR. The reactions were performed as described in the Examples. FIG. 9B is a graph showing that BVR tyrosine kinase activity was checked by incubating 5 μg purified BVR with 5 μg Raytide in 50 μl kinase buffer containing 10 μM labeled ATP for 2 h at 30° C. The aliquots of the reaction were transferred onto P81 Whatman filters and radioactivity due to phosphorylation was measured using a scintillation counter.
FIGS. 10A-B illustrate that autophosphorylation of BVR is an Mn^+2 dependant kinase reaction. […] The effects of different metal ions (30 mM MnCl2, 20 mM MgCl2, 20 mM CaCl2, 20 mM Zn acetate) and their combinations were analyzed as indicated in the text. […] Phosphorylation of wtBVR by IRK in the presence of tyrosine kinase inhibitor genestein (200 μM); DMSO was used as the vehicle for genestein and was included in the control reaction mixture. The reactions were carried out in HEPES buffer (pH 8.0) in the presence of 20 mM MgCl2 as described in the Examples.
(§1) To detect autophosphorylation of BVR, GST-hBVR of wild type (wt) and mutant variants were incubated in 50 mM HEPES buffer (pH 8.4) in the presence of 30 mM MnCl2 and 1 mM DTT for 2 h at 30° C. The reaction was started with the addition of 10 μM ATP labeled with 10 μCi [γ-^32P]-ATP and was stopped with the addition of Laemmli sample buffer. Samples were boiled for 3 min and applied to a 8% SDS-PAGE gels, transferred to a PVDF membrane, and then visualized by autoradiography. […] The reaction was started with the addition of ATP and terminated by adding 120 μl 10% H3PO4. 100 μl aliquots were directly transferred to P81 Whatman filters which were subsequently washed extensively in 0.75% phosphoric acid at room temperature. Finally, the filters were submerged in acetone for 5 min, dried, and retained counts were measured using a Beckman LS 6500 liquid scintillation counter (Beckman Coulter, Fullerton, Calif.).

[2] = system: IRS-1; assay: BVR kinase activity with IRS-1 as substrate (wt vs G17 mutant); format: biochemical; details: mutation in ATP binding domain compared with wtBVR
Procedure: BVR containing mutations on threonine 202 and serine residues, as indicated in the figure, were subjected to autophosphorylation analysis as described in the text. […] 5 μg purified BVR was incubated with 5 μg IRS-1 or HO-1 or HO-2, used as a control for kinase activity, and MBP which was used as the substrate control in 50 μl kinase buffer as described in the Examples. […] Mutant G^17 was compared with wtBVR as a kinase for IRS.
as §1

[3] = biological target: insulin receptor substrate-1 (IRS-1) peptide Y^608
[4] = biological target: T2, Peptide 2, IRS-1 peptide (Arg-Thr-Glu-Ser307-Ile-Thr-Ala-Thr-Ser312-Pro-Ala-Ser315-Met-Val-Gly-Gly-Lys-Pro)
T2 chain: RTESITATSPASMVGGKP

[5] = biological target: T3, Peptide 1, mutant IRS-1 peptide (Lys-Lys-His-Ala-Asp-Asp-Gly-Ala-Met-Pro-Met-Ser-Pro-Gly-Val-Ala)
T3 chain: KKHADDGAMPMSPGVA

CC(=O)[O-].CC(=O)[O-].[Zn+2] [Zn^+2, Zn acetate, reference compound] was tested, and the “BVR autophosphorylation in presence of metal ion” value [1] was “inhibitory to BVR autophosphorylation”.

B1: G^17: human BVR point mutant GVGRA to GVARA in ATP binding domain (protein, UniProt P53004 3-296, looked up, variant G17A)
Biliverdin reductase A: AEPERKFGVVVVGVARAGSVRMRDLRNPHPSSAFLNLIGFVSRRELGSIDGVQQISLEDALSSQEVEVAYICSESSSHEDYIRQFLNAGKHVLVEYPMTLSLAAAQELWELAEQKGKVLHEEHVELLMEEFAFLKKEVVGKDLLKGSLLFTAGPLEEERFGFPAFSGISRLTWLVSLFGELSLVSATLEERKEDQYMKMTVCLETEKKSPLSWIEEKGPGLKRNRYLSFHFKSGSLENVPNVGVNKNIFLKDQNIFVQKLLGQFSEKELAAEKKRILHCLGLAEEIQKYCCSRK
B1 was tested, and the “IRS phosphorylation by BVR” value [2] was “for the most part, prevented IRS phosphorylation by BVR”.

B2: GST-hBVR fusion protein, wild type (human biliverdin reductase fused to glutathione-S-transferase) (protein)
chain: T1 sequence (P53004 1-296 A154S/G155D/E160D)
In the case of B2, the “phosphorylation of BVR by IRK in the presence of increasing molar ratio of IRS/BVR” value [3] is reported as “in the presence of increasing amounts of IRS, there was an increase in phosphorylation of BVR by IR up to equimolar ratio of IRS/BVR”, the “phosphorylation of IRS-1 peptide by BVR (32P, cpm)” value (from here on “phosphorylation of IRS-1 peptide”) [3] is reported as “both the mutated and unmutated peptides were phosphorylated to about the same extent (1049±78 cpm and 1081±183 cpm respectively)” and the “phosphorylation of IRS-1 peptide” value [4] is reported as “this peptide is also a suitable substrate for BVR (1198±230 cpm)”. For the same molecule, the “phosphorylation of IRS-1 peptide” value [5] was “both the mutated and unmutated peptides were phosphorylated to about the same extent (1049±78 cpm and 1081±183 cpm respectively)”.
